Results published in patent US10472401B2, “Peptides and combination of peptides for use in immunotherapy against ovarian cancer and other cancers” (immatics biotechnologies GmbH, priority 2015, dated 2019).

Biological target: HLA-A*02:01 (Homo sapiens, UniProt P04439, D140Y/D185E/D98H/E176V/E277Q/G131W/G231S/I119V/I121R/I166T/I218V/L300P/L318F/N151K/N90K/P208A/P217A/Q86G/Q94H/R138H/R169H/T345S)
Experiment: MHC binding assay (UV-ligand exchange, ELISA of stabilized MHC complexes)
Details: MHC class I binding score; binding to HLA-A*02:01 ranged by peptide exchange yield (UV-ligand exchange, ELISA)
Excerpt: Candidate peptides for T cell based therapies according to the present invention were further tested for their MHC binding capacity (affinity). The individual peptide-MHC complexes were produced by UV-ligand exchange, where a UV-sensitive peptide is cleaved upon UV-irradiation, and exchanged with the peptide of interest as analyzed. Only peptide candidates that can effectively bind and stabilize the peptide-receptive MHC molecules prevent dissociation of the MHC complexes. To determine the yield of the exchange reaction, an ELISA was performed based on the detection of the light chain (β2m) of stabilized MHC complexes. The assay was performed as generally described in Rodenko et al. (Rodenko et al., 2006).
96 well MAXISorp plates (NUNC) were coated over night with 2 ug/ml streptavidin in PBS at room temperature, washed 4× and blocked for 1h at 37° C. in 2% BSA containing blocking buffer. […] Peptide-MHC monomers of the UV-exchange reaction were diluted 100 fold in blocking buffer. Samples were incubated for 1h at 37° C., washed four times, incubated with 2 ug/ml HRP conjugated anti-82m for 1h at 37° C., washed again and detected with TMB solution that is stopped with […]. Absorption was measured at 450 nm. Candidate peptides that show a high exchange yield (preferably higher than 50%, most preferred higher than 75%) are generally preferred for a generation and production of antibodies or fragments thereof, and/or T cell receptors or fragments thereof, as they show sufficient avidity to the MHC molecules and prevent dissociation of the MHC complexes.

| Substance | Peptide exchange |
| --- | --- |
| 7 (SLVGLLLYL; listed as Homo sapiens) [compound 7] | ″++++″ (≥75% = ++++) |
| 9 (GAAKDLPGV; listed as Homo sapiens) [compound 9] | ″++″ (≥20% = ++) |
| 10 (FLATFPLAAV; listed as Homo sapiens) [compound 10] | ″++++″ (≥75% = ++++) |
| 12 (SLWPDPMEV; listed as Homo sapiens) [compound 12] | ″+++″ (≥50% = +++) |
| 13 (YLMDESLNL; listed as Homo sapiens) [compound 13] | ″+++″ (≥50% = +++) |
| 14 (AAYGGLNEKSFV; listed as Homo sapiens) [compound 14] | ″+++″ (≥50% = +++) |
| 16 (VLFQGQASL; listed as Homo sapiens) [compound 16] | ″+++″ (≥50% = +++) |
| 18 (YLVAKLVEV; listed as Homo sapiens) [compound 18] | ″++″ (≥20% = ++) |
| 19 (FMVDNEAIYDI; listed as Homo sapiens) [compound 19] | ″++++″ (≥75% = ++++) |
| 20 (RMIEYFIDV; listed as Homo sapiens) [compound 20] | ″+++″ (≥50% = +++) |
| 22 (IMEENPGIFAV; listed as Homo sapiens) [compound 22] | ″+++″ (≥50% = +++) |
| 23 (VLLDDIFAQL; listed as Homo sapiens) [compound 23] | ″+++″ (≥50% = +++) |
| 25 (FLPDEPYIKV; listed as Homo sapiens) [compound 25] | ″+++″ (≥50% = +++) |
| 26 (ALLELAEEL; listed as Homo sapiens) [compound 26] | ″+++″ (≥50% = +++) |
| 27 (ILADIVISA; listed as Homo sapiens) [compound 27] | ″+++″ (≥50% = +++) |
| 28 (QLLDETSAITL; listed as Homo sapiens) [compound 28] | ″+++″ (≥50% = +++) |
| 29 (KMLGIPISNILMV; listed as Homo sapiens) [compound 29] | ″+++″ (≥50% = +++) |
| 30 (LILDWVPYI; listed as Homo sapiens) [compound 30] | ″+++″ (≥50% = +++) |
| 33 (VLLSLLEKV; listed as Homo sapiens) [compound 33] | ″++″ (≥20% = ++) |
| 34 (ILVEADSLWVV; listed as Homo sapiens) [compound 34] | ″+++″ (≥50% = +++) |
| 35 (KINDTIYEV; listed as Homo sapiens) [compound 35] | ″+++″ (≥50% = +++) |
| 43 (VLSSLEINI; listed as Homo sapiens) [compound 43] | ″++″ (≥20% = ++) |
| 44 (ILDPISSGFLL; listed as Homo sapiens) [compound 44] | ″++″ (≥20% = ++) |
| 46 (ILTEENIHL; listed as Homo sapiens) [compound 46] | ″+++″ (≥50% = +++) |

| Substance | Peptide exchange |
| --- | --- |
| 47 (ILLSVPLLVV; listed as Homo sapiens) [compound 47] | ″++″ (≥20% = ++) |
| 49 (YLPAVFEEV; listed as Homo sapiens) [compound 49] | ″+++″ (≥50% = +++) |
| 50 (SLSELEALM; listed as Homo sapiens) [compound 50] | ″+++″ (≥50% = +++) |
| 51 (LLPDLEFYV; listed as Homo sapiens) [compound 51] | ″++++″ (≥75% = ++++) |
| 52 (FLLAHGLGFLL; listed as Homo sapiens) [compound 52] | ″++++″ (≥75% = ++++) |
| 53 (KMIETDILQKV; listed as Homo sapiens) [compound 53] | ″++++″ (≥75% = ++++) |
| 55 (SLLDLETLSL; listed as Homo sapiens) [compound 55] | ″++++″ (≥75% = ++++) |
| 57 (TLAELQPPVQL; listed as Homo sapiens) [compound 57] | ″+++″ (≥50% = +++) |
| 59 (IMEDIILTL; listed as Homo sapiens) [compound 59] | ″+++″ (≥50% = +++) |
| 62 (VLLDVSAGQLLM; listed as Homo sapiens) [compound 62] | ″++++″ (≥75% = ++++) |
| 64 (YAAPGGLIGV; listed as Homo sapiens) [compound 64] | ″++″ (≥20% = ++) |
| 66 (FLDENIGGVAV; listed as Homo sapiens) [compound 66] | ″+++″ (≥50% = +++) |
| 67 (TLLAEALVTV; listed as Homo sapiens) [compound 67] | ″+++″ (≥50% = +++) |
| 68 (SLMELPRGLFL; listed as Homo sapiens) [compound 68] | ″++++″ (≥75% = ++++) |
| 69 (FQLDPSSGVLVTV; listed as Homo sapiens) [compound 69] | ″+++″ (≥50% = +++) |
| 71 (GILARIASV; listed as Homo sapiens) [compound 71] | ″+++″ (≥50% = +++) |
| 72 (SLLELDGINL; listed as Homo sapiens) [compound 72] | ″+++″ (≥50% = +++) |
| 73 (NIFDLQIYV; listed as Homo sapiens) [compound 73] | ″+++″ (≥50% = +++) |
| 74 (ALLDPEVLSIFV; listed as Homo sapiens) [compound 74] | ″+++″ (≥50% = +++) |
| 75 (GLLEVMVNL; listed as Homo sapiens) [compound 75] | ″+++″ (≥50% = +++) |
| 77 (ILVEADGAWVV; listed as Homo sapiens) [compound 77] | ″++++″ (≥75% = ++++) |
| 78 (SLFSSLEPQIQPV; listed as Homo sapiens) [compound 78] | ″+++″ (≥50% = +++) |
| 80 (FLYDNLVESL; listed as Homo sapiens) [compound 80] | ″++″ (≥20% = ++) |
| 81 (FLFSQLQYL; listed as Homo sapiens) [compound 81] | ″++″ (≥20% = ++) |

Further lines, results first:

| Peptide exchange | Substance |
| --- | --- |
| ″+++″ (≥50% = +++) | 1 (SLMEPPAVLLL; listed as Homo sapiens) [compound 1] |
| ″++++″ (≥75% = ++++) | 4 (GIMEHITKI; listed as Homo sapiens) [compound 4] |
| ″+++″ (≥50% = +++) | 5 (HLTEVYPEL; listed as Homo sapiens) [compound 5] |
| ″+++″ (≥50% = +++) | 6 (VLVSDGVHSV; listed as Homo sapiens) [compound 6] |
| ″++″ (≥20% = ++) | 15 (VLLTFKIFL; listed as Homo sapiens) [compound 15] |
| ″+++″ (≥50% = +++) | 17 (GLLPGDRLVSV; listed as Homo sapiens) [compound 17] |
| ″++″ (≥20% = ++) | 21 (VLDELDMEL; listed as Homo sapiens) [compound 21] |
| ″++″ (≥20% = ++) | 24 (SLSDGLEEV; listed as Homo sapiens) [compound 24] |
| ″++″ (≥20% = ++) | 31 (YLAPELFVNV; listed as Homo sapiens) [compound 31] |
| ″++″ (≥20% = ++) | 32 (KLDDLTQDLTV; listed as Homo sapiens) [compound 32] |
| ″+++″ (≥50% = +++) | 39 (SVAPNLPAV; listed as Homo sapiens) [compound 39] |
| ″+++″ (≥50% = +++) | 40 (TLLVKVFSV; listed as Homo sapiens) [compound 40] |
| ″+++″ (≥50% = +++) | 41 (SLMPHIPGL; listed as Homo sapiens) [compound 41] |
| ″+++″ (≥50% = +++) | 42 (VLLQKIVSA; listed as Homo sapiens) [compound 42] |
| ″+++″ (≥50% = +++) | 45 (SLWQDIPDV; listed as Homo sapiens) [compound 45] |
| ″+++″ (≥50% = +++) | 54 (SLLEQGKEPWMV; listed as Homo sapiens) [compound 54] |
| ″++++″ (≥75% = ++++) | 61 (FLQGYQLHL; listed as Homo sapiens) [compound 61] |
| ″++″ (≥20% = ++) | 63 (YLLPSGGSVTL; listed as Homo sapiens) [compound 63] |
| ″+++″ (≥50% = +++) | 70 (GLLDYPVGV; listed as Homo sapiens) [compound 70] |
| ″+++″ (≥50% = +++) | 76 (ILIDSIYKV; listed as Homo sapiens) [compound 76] |
| ″+++″ (≥50% = +++) | 82 (FLSSVTYNL; listed as Homo sapiens) [compound 82] |
| ″+++″ (≥50% = +++) | 83 (ILAPTVMMI; listed as Homo sapiens) [compound 83] |
| ″++″ (≥20% = ++) | 84 (VTFGEKLLGV; listed as Homo sapiens) [compound 84] |
| ″+++″ (≥50% = +++) | 85 (KMSELRVTL; listed as Homo sapiens) [compound 85] |
| ″+++″ (≥50% = +++) | 86 (NLIGKIENV; listed as Homo sapiens) [compound 86] |
